According to patent publication US20180320194A1 (PURDUE RESEARCH FOUNDATION, published 2018):

Legend:
ABF2, Q9M7Q4 = molecular target: T1, ABF2, Q9M7Q4
T1 chain: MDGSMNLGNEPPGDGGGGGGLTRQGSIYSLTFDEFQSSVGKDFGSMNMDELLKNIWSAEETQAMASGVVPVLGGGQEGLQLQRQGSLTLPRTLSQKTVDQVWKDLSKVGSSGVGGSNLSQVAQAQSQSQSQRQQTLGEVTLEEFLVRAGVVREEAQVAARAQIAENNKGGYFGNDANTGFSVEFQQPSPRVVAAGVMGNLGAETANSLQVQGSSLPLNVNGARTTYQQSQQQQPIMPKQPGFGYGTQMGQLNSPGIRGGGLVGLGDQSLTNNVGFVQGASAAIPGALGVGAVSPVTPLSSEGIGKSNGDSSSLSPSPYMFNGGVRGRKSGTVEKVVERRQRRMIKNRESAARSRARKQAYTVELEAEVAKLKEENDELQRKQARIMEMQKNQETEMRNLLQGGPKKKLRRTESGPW

ABA-insensitive 1 (ABI1) = molecular target: T2, ABA-insensitive 1 (ABI1) (Arabidopsis, UniProt P49597 1-434); experiment: tandem affinity purification (anti-HA agarose, GFP-Trap) from seedlings, MS identification
T2 construct: Endogenous protein in the TAP-MS experiment
T2 sequence (looked up): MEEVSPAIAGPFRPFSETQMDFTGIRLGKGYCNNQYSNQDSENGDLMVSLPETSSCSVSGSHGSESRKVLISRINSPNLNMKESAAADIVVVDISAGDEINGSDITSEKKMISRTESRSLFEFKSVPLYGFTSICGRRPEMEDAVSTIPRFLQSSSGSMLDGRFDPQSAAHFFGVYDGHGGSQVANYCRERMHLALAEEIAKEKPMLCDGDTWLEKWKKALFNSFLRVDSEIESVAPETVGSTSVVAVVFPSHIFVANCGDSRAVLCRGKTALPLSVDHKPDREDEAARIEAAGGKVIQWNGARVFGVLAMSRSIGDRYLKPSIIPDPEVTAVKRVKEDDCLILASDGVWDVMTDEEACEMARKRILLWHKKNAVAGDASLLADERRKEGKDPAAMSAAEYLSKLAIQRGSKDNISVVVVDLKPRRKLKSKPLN
Experimental: (§1) Ten-day-old seedlings of the transgenic Arabidopsis plants expressing ProPYL9:PYL9-HA-YFP (FIG. 12A) were used for tandem affinity purification. Seedlings (3-4 g fresh weight) were treated for 1 h with ½ Murashige and Skoog medium containing 100 μM ABA or 30 min with ½ Murashige and Skoog medium containing 0.8 M mannitol; for the control, seedlings were treated with ½ Murashige and Skoog medium for 1 h. After treatment, samples were quickly frozen, ground in liquid N₂, homogenized in an equal volume of 2× immunoprecipitation (IP) buffer (100 mM Tris.HCl, pH 7.5, 300 mM NaCl, 2 mM EDTA, 0.2% Nonidet P-40, 2× protease mixture; Roche), and then, centrifuged at 30,000×g for 30 min at 4° C. The supernatant was passed through a 0.2-μM filter and centrifuged again at 30,000×g for 30 min at 4° C. After that, the supernatant was incubated with 40 μL 50% (vol/vol) slurry of monoclonal anti-HA agarose with antibody produced in mouse (A2095; Sigma), which was prebalanced with 1×IP buffer. The mixture was inverted for 1 h at 4° C. on a shaker. The agarose was then washed four times with 1×IP buffer, three times with high NaCl buffer (50 mM Tris.HCl, pH 7.5, 500 mM NaCl, 1 mM EDTA), and finally, three times with 1×IP buffer. The protein that had bound to the anti-HA agarose was eluted by HA peptide (ab13835; Abcam) with a concentration of […] in 200 μL 1×IP buffer overnight at 4° C. […]

PP2CA = molecular target: T3, PP2CA (Arabidopsis, UniProt P49598 1-399); experiment: as above
T3 construct: Endogenous protein co-purified from seedlings and identified by MS
T3 sequence (looked up): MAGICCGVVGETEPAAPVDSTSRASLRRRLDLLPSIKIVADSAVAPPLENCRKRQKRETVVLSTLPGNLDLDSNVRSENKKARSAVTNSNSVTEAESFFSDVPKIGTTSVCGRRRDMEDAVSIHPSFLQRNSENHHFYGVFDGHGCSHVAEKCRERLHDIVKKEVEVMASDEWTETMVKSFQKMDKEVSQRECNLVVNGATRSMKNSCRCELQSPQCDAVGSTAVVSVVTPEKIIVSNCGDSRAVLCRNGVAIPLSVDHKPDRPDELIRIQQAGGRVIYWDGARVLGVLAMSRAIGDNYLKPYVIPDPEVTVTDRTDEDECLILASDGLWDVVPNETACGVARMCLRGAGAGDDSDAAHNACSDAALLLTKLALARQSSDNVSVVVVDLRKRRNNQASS
Experimental: as §1

[1] = molecular target: T4, PYL9 fused to the GAL4-DNA-binding domain (BD-PYL9) (Arabidopsis); experiment: yeast two-hybrid, growth on media lacking His with and without ABA
T4 construct: Y2H bait; also called pBD-GAL4-PYL9

B1: SnRK2.6 (protein)
chain: MDRPAVSGPMDLPIMHDSDRYELVKDIGSGNFGVARLMRDKQSNELVAVKYIERGEKIDENVKREIINHRSLRHPNIVRFKEVILTPTHLAIVMEYASGGELFERICNAGRFSEDEARFFFQQLISGVSYCHAMQVCHRDLKLENTLLDGSPAPRLKICDFGYSKSSVLHSQPKSTVGTPAYIAPEVLLKKEYDGKVADVWSCGVTLYVMLVGAYPFEDPEEPKNFRKTIHRILNVQYAIPDYVHISPECRHLISRIFVADPAKRISIPEIRNHEWFLKNLPADLMNDNTMTTQFDESDQPGQSIEEIMQIIAEATVPPAGTQNLNHYLTGSLDIDDDMEEDLESDLDDLDIDSSGEIVYAM
ABF2, Q9M7Q4
  SAG12-LUC expression in protoplasts: Expression of SnRK2.6 significantly enhanced the ability of ABF2 to increase SAG12-LUC expression in the presence of ABA

B2: HA- and YFP-tagged PYL9 (PYL9-HA-YFP) (receptor)
chain: MMDGVEGGTAMYGGLETVQYVRTHHQHLCRENQCTSALVKHIKAPLHLVWSLVRRFDQPQKYKPFVSRCTVIGDPEIGSLREVNVKSGLPATTSTERLELLDDEEHILGIKIIGGDHRLKNYSSILTVHPEIIEGRAGTMVIESFVVDVPQGNTKDETCYFVEALIRCNLKSLADVSERLASQDITQ
notes: Expressed under the native PYL9 promoter in transgenic Arabidopsis seedlings; also called ProPYL9:PYL9-HA-YFP; not shown: 3HA tag at the C terminus; YFP tag at the C terminus
ABA-insensitive 1 (ABI1)
  binding result: binds
PP2CA
  binding result: binds

B3: activating domain (AD) alone (other, UniProt P04386 768-881, looked up)
chain: ANFNQSGNIADSSLSFTFTNSSNGPNLITTQTNSQALSQPIASSNVHDNFMNNEITASKIDDGNNSKPLSPGWTDQTAYNAFGITTGMFNTTTMDDVYNYLFDDEDTPPNPKKE
notes: Negative control prey in the Y2H assay
[1]
  binding result: no binding
